Data from patent publication US20130089557A1 (SAMSUNG ELECTRONICS, published 2013).
Each block holds one binder with its values, some of them ahead of it.

What was measured:
[1] = biological target: c-Met on MKN45 gastric cancer cells and on Caki-1 cells (human, UniProt P08581 25-1390); test: cell-based or functional assay
[2] = biological target: T1, EEPAQ peptide (SEQ ID NO: 81); test: SPR (Biacore), huAbF46 on CM5 chip, peptide injected 0.39-100 nM
T1 peptide: EEPAQ

[3] = biological target: T2, EEPSQ peptide (SEQ ID NO: 3); test: as above
T2 construct: the range is one residue short
T2 peptide: EEPSQ

[4] = biological target: T3, FSPQIEDPSQCPDCVVSALGAKVL (SEQ ID NO: 71); test: PEPSCAN peptide ELISA
T3 construct: Peptide with the E168D mutation
T3 peptide: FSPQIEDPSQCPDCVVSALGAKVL
Protocol: (§1) For epitope mapping, PEPSCAN-based ELISA was performed using a total number of 529 linear and CLIPS peptides. The peptides were maintained at room temperature for 30 minutes by using a 5% blocking solution to provoke a reaction (4% ovalbumin, 5% horse serum, and 1% Tween 80). […] Thereafter, the resultant product was treated with rabbit-anti-sheep antibody (SIGMA) and washed with PBS, and the washed product was then treated with peroxidase-attached swine-anti-rabbit antibody (SIGMA) and washed with PBS. Then, the resultant product was treated with 2 ul/ml of peroxidase 2,2′-azino-di-3-ethylbenzthiazoline sulfonate (ABTS)(SIGMA) in 3% H₂O₂, and a color reaction was measured after 1 hour.

[5] = biological target: T4, CEDPSQAPDAC (SEQ ID NO: 76); test: PEPSCAN peptide ELISA
T4 peptide: CEDPSQAPDAC
Protocol: as §1

[6] = biological target: T5, CPQIEDPSQAC (SEQ ID NO: 73); test: PEPSCAN peptide ELISA
T5 peptide: CPQIEDPSQAC
Protocol: as §1

[7] = biological target: T6, CIEDPSQAPDC (SEQ ID NO: 75); test: PEPSCAN peptide ELISA
T6 peptide: CIEDPSQAPDC
Protocol: as §1

[8] = biological target: T7, CSPQIEDPSQC (SEQ ID NO: 72); test: PEPSCAN peptide ELISA
T7 peptide: CSPQIEDPSQC
Protocol: as §1

[9] = biological target: T8, CQIEDPSQAPC (SEQ ID NO: 74); test: PEPSCAN peptide ELISA
T8 peptide: CQIEDPSQAPC
Protocol: as §1

[10] = biological target: T9, AAAAA peptide (SEQ ID NO: 77); test: SPR (Biacore), huAbF46 on CM5 chip, peptide injected
T9 peptide: AAAAA

[11] = biological target: T10, EEPSA peptide (SEQ ID NO: 82); test: as above
T10 peptide: EEPSA

[12] = biological target: T11, EEASQ peptide (SEQ ID NO: 80); test: as above
T11 peptide: EEASQ

[13] = biological target: T12, EAPSQ peptide (SEQ ID NO: 79); test: as above
T12 peptide: EAPSQ

[14] = biological target: T13, AEPSQ peptide (SEQ ID NO: 78); test: as above
T13 peptide: AEPSQ

human c-Met protein [15] = biological target: T14, human c-Met protein (human, UniProt P08581 25-932, limits assumed); test: SPR (Biacore), against huAbF46 (Table 3)
T14 construct: also called c-Met antigen
Protocol: Affinities of the 4 types of antibodies against c-Met antigen were measured by using a Biacore (GE healthcare). About 80 to 110 RU of each antibody was immobilized on a CM5 chip, and 9 different concentrations ranging from 0.39 nM to 100 nM of human c-Met protein, as an antigen, were injected at a rate of 30 ul/min to obtain kₒₙ values and koff values as shown in Table 3. Then, KD values were calculated based thereon.

human c-Met protein [16] = biological target: T14, human c-Met protein; test: method not described

Chain of c-Met on MKN45 gastric cancer cells and on Caki-1 cells (P08581 25-1390): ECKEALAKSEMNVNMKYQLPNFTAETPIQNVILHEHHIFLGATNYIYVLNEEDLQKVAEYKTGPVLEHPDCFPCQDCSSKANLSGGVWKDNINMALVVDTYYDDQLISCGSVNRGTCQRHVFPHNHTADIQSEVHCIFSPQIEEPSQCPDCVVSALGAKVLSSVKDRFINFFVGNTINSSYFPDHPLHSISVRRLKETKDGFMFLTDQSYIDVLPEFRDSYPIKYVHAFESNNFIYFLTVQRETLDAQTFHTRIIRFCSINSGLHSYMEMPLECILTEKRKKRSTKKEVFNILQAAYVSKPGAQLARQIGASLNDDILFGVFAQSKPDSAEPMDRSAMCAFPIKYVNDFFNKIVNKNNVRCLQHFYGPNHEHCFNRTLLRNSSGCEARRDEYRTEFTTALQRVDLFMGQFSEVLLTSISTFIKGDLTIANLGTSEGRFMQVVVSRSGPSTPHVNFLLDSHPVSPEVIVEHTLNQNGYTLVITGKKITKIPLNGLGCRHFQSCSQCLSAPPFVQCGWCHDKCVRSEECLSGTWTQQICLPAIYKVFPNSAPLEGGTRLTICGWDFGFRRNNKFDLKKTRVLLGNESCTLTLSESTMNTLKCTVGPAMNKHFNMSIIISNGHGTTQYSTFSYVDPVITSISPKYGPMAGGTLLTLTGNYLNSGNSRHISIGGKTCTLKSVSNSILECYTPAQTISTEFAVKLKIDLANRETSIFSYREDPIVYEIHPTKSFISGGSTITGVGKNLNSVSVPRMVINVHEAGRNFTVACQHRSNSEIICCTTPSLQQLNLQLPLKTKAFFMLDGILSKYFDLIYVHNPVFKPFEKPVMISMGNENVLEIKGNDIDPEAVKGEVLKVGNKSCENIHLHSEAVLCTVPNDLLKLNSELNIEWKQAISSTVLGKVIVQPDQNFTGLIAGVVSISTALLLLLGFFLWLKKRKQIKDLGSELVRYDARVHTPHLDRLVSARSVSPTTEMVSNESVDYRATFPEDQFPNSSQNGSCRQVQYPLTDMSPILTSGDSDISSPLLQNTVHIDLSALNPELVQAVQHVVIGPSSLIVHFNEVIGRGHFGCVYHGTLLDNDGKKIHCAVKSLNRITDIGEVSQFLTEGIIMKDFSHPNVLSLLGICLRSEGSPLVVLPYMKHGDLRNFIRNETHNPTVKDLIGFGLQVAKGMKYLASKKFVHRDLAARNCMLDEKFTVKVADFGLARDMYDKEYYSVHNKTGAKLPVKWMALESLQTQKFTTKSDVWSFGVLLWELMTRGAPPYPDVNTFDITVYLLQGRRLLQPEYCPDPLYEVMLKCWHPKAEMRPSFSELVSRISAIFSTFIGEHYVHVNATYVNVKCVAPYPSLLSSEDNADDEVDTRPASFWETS
T14 sequence (P08581 25-932 limits assumed): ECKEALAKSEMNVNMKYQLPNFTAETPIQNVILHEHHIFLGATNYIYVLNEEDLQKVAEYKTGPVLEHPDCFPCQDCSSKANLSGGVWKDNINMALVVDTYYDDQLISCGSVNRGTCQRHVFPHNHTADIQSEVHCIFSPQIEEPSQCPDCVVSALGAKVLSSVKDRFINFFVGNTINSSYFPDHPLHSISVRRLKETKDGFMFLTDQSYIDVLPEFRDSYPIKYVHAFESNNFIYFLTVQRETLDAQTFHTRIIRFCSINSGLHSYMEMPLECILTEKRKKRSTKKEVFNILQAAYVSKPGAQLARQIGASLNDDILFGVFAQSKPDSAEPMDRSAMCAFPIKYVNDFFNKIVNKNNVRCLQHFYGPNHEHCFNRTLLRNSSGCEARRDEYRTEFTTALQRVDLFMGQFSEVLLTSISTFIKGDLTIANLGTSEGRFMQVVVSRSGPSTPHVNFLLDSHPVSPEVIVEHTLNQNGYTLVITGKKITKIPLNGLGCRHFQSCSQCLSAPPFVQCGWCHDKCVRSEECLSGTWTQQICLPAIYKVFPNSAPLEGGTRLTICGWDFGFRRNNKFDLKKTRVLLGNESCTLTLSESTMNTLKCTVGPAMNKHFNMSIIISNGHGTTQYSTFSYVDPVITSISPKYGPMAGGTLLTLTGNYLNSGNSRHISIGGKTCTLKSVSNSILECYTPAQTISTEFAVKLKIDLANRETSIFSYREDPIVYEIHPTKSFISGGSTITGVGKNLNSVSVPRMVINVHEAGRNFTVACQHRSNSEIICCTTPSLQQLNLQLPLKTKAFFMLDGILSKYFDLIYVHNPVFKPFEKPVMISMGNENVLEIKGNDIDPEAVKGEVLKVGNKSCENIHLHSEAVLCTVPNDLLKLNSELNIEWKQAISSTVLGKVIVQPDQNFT

degree of degradation of c-Met (total c-Met ELISA, MKN45 cells, 5 ug/ml antibody, 24 hours) [1]: ~37% | fold improvement of affinity (human c-Met protein [15]): 37 times
B3: huAbF46-H4-A1 (antibody, V domains shown)
VH: EVQLVESGGGLVQPGGSLRLSCAASGFTFTDYYMSWVRQAPGKGLEWLGFIRNKANGYTTEYSASVKGRFTISRDNSKNTLYLQMNSLRAEDTAVYYCARDNWFAYWGQGTLVTVSS
VL: DIQMTQSPSSLSASVGDRVTITCKSSQSLLASGNQNNYLAWHQQKPGKAPKMLIIWASTRVSGVPSRFSGSGSGTDFTLTISSLQPEDFATYYCQQSYSRPYTFGQGTKVEIKR
notes: IgG; also called IgG from clone L3-1

binding result (human c-Met protein [16]): binds
B6: scFv of huAbF46 antibody (scFv)
scFv: EVQLVESGGGLVQPGGSLRLSCAASGFTFTDYYMSWVRQAPGKGLEWLGFIRNKANGYTTEYSASVKGRFTISRDNSKNTLYLQMNSLRAEDTAVYYCARDNWFAYWGQGTLVTVSSGLGGLGGGGSGGGGSGGSSGVGSDIQMTQSPSSLSASVGDRVTITCKSSQSLLASGNQNNYLAWHQQKPGKAPKMLIIWASTRVSGVPSRFSGSGSGTDFTLTISSLQPEDFATYYCQQSYSAPLTFGQGTKVEIKR
notes: 'VH-linker-VL' form; Tags or display fusion partner not described; also called wild-type antibody (scFv of huAbF46)

Second part, the binder before the results:

B1: huAbF46-H4-A5 (antibody, V domains shown)
VH: EVQLVESGGGLVQPGGSLRLSCAASGFTFTDYYMSWVRQAPGKGLEWLGFIRNKANGYTTEYSASVKGRFTISRDNSKNTLYLQMNSLRAEDTAVYYCARDNWFAYWGQGTLVTVSS
VL: DIQMTQSPSSLSASVGDRVTITCKSSQSLLASGNQNNYLAWHQQKPGKAPKMLIIWASTRVSGVPSRFSGSGSGTDFTLTISSLQPEDFATYYCQQSYSRPFTFGQGTKVEIKR
degree of degradation of c-Met (total c-Met ELISA, MKN45 cells, 5 ug/ml antibody, 24 hours) [1]: ~28%

B2: humanized antibody huAbF46 (H4-heavy chain and H4-light chain) (antibody, human IgG1, kappa, V domains shown)
VH: EVQLVESGGGLVQPGGSLRLSCAASGFTFTDYYMSWVRQAPGKGLEWLGFIRNKANGYTTEYSASVKGRFTISRDNSKNTLYLQMNSLRAEDTAVYYCARDNWFAYWGQGTLVTVSS
VL: DIQMTQSPSSLSASVGDRVTITCKSSQSLLASGNQNNYLAWHQQKPGKAPKMLIIWASTRVSGVPSRFSGSGSGTDFTLTISSLQPEDFATYYCQQSYSAPLTFGQGTKVEIKR
notes: also called humanized antibody AbF46
Kd [2]: 1.43 nM | Kd [3]: 1.64 nM | binding result [4]: no binding (tested: 1 to 100 ug/ml of huAbF46 antibody) | binding result [5]: no binding (tested: 1 to 100 ug/ml of huAbF46 antibody) | binding result [6]: no binding (tested: 1 to 100 ug/ml of huAbF46 antibody) | binding result [7]: no binding (tested: 1 to 100 ug/ml of huAbF46 antibody) | binding result [8]: no binding (tested: 1 to 100 ug/ml of huAbF46 antibody) | binding result [9]: no binding (tested: 1 to 100 ug/ml of huAbF46 antibody) | binding result [10]: no binding (tested: 100 nM to 0.39 nM of the peptides) | binding result [11]: no binding (tested: 100 nM to 0.39 nM of the peptides) | binding result [12]: no binding (tested: 100 nM to 0.39 nM of the peptides) | binding result [13]: no binding (tested: 100 nM to 0.39 nM of the peptides) | binding result [14]: no binding (tested: 100 nM to 0.39 nM of the peptides)

B4: huAbF46-H4-A2 (antibody, V domains shown)
VH: EVQLVESGGGLVQPGGSLRLSCAASGFTFTDYYMSWVRQAPGKGLEWLGFIRNKANGYTTEYSASVKGRFTISRDNSKNTLYLQMNSLRAEDTAVYYCARDNWFAYWGQGTLVTVSS
VL: DIQMTQSPSSLSASVGDRVTITCKSSQSLLASGNQNNYLAWHQQKPGKAPKMLIIWASTRVSGVPSRFSGSGSGTDFTLTISSLQPEDFATYYCGQSYSRPLTFGQGTKVEIKR
notes: IgG; also called IgG from clone L3-2
degree of degradation of c-Met (total c-Met ELISA, MKN45 cells, 5 ug/ml antibody, 24 hours) [1]: ~28% | fold improvement of affinity (human c-Met protein [15]): 5 times

B5: huAbF46-H4-A3 (antibody, V domains shown)
VH: EVQLVESGGGLVQPGGSLRLSCAASGFTFTDYYMSWVRQAPGKGLEWLGFIRNKANGYTTEYSASVKGRFTISRDNSKNTLYLQMNSLRAEDTAVYYCARDNWFAYWGQGTLVTVSS
VL: DIQMTQSPSSLSASVGDRVTITCKSSQSLLASGNQNNYLAWHQQKPGKAPKMLIIWASTRVSGVPSRFSGSGSGTDFTLTISSLQPEDFATYYCAQSYSHPFSFGQGTKVEIKR
degree of degradation of c-Met (total c-Met ELISA, MKN45 cells, 5 ug/ml antibody, 24 hours) [1]: ~28%
